B1: TCN-540 (5060_F05) (antibody, V domains shown)
VH: QVQLVQSGGGVVQPGRSLRLSCAASGFTFSSYAMHWVRQAPGKGLEWVAIISYDGNDQYYTDSVKGRFTISRDSSKVYLQMHRLRPEDTAVYYCAKEFETSGYFHGSFDYWGQGILVTVSS
VL: QSALTQPASVSGSPGQSITISCTGTSSDVGGYNYVSWYQQHPGKAPKLLIYEVTNWPSGVSNRFSGSKSGNTASLTISGLQAEDEADYYCSSYAGSSTWVFGGGTRVTVL
B2: TCN-536 (5095_N01) (antibody, V domains shown)
VH: QVQLQQWGAGLLKPSETLSLTCAVYGGSFSVSGYYWSWIRQPPGRGLEWIGEISHGGSTNYNPSLKSRVTISVDTTKNQFSLRLSSVTAADTAVYYCARGTDPDTEVYCRVGNCAAFDYWGQGSLVTVSS
VL: EIILAQSPGTLSLSPGERATLSCRASQFVSTRSLAWYQQRPGQAPRLLIYGASSRATGIPDRFSGSGSGTDFTLTISRLEPEDFAVYYCQHYGYSPRYAFGQGSKVEIK
B3: TCN-534 (5249_B02) (antibody, V domains shown)
VH: QVQLVQSGAEVKKPGSSVKVSCRESGGTFNGYTITWVRQAPGQGLEWMGGIIPMMGTVNYAQKLQGRVTITTDYFTKTAYMDLNNLRSEDTAMYYCVKIRYTGQQLLWGQGTLVTVSS
VL: DIQMTQSPSTLSASIGDRVTITCRASQSIASWLAWYQQKPGKAPKLLIYEAVNLESGVPSRFSGSGSGTDFTLTISSLQPDDFATYFCQHYGTISQTFGGGTKVEIK
B4: TCN-535 (5246_P19) (antibody, V domains shown)
VH: QVQLVQSGSEVKKPGTSVKVSCTASGSVFTNYGISWVRQAPGQGLEWMGGIIPLFGAAKYAQKFQGRVTITADESTKTVYMELSRLTSKDTAIYFCAKAPRVYEYYFDQWGQGTPVTVSS
VL: EIVLTQSPGTLSLSPGERATLSCRASQSVSSSQLAWYQQKPGQAPRLIIYGASTRATGIPDRFSGSGSGTDFTLTIGRLEPEDFAVFFCQQYSTSPPTFGQGTKVDFK
B5: TCN-532 (5262_H18) (antibody, V domains shown)
VH: QVQLQESGPGLVKPSETLSLTCTVSGGSVSSETYYWSWIRQPPGKGLEWIGYIYYIGNTDYRPSLKSRVTISLDTSKNQFSLKLSSVTAADTAVYYCARGAYYDSSGYPAFYIWGQGTMVTVSS
VL: QSVLTQPPSVSGAPGQRVTISCTGSSSNIGSDYDVHWYKQLPGTAPKLLIFGNSNRPSGVPDRFSGSKSGTSASLAITGLQAEDEADYYCQSYDSSLSGFHVFGSGTKVTVL
B6: TCN-539 (5056_A08) (antibody, V domains shown)
VH: QVQLVESGGGVVQPGRSLRLSCAASEITFITYAMHWVRQAPGKGLEWVALISDDGSNKFYADSVKGRFTISRDNSKNTLYLQMNSLRAEDTAAYYCAREGVYFDSGTYRGYFDYWGQETLVTVSS
VL: EIVLTQSPATLSLSPGERATLSCRASQSVSSYLAWYQQKPGQAPRLLIYDASNRATGIPARFSGSGSGTDFTLTISSLEPEDFAVYYCQQRSHWPPITFGQGTRLEIK
B7: TCN-542 (5079_A16) (antibody, V domains shown)
VH: QVQLQESGPGLVKPSQTLSLTCTVSGGSISSGNYYWNWVRQHPGKGLEWIGYIYYRGSTFYNPSLKSRVTISIDTSKNQFSLRLSSVTAADTAVYYCAKDTRSSLDNYQYGMDVWGQGTTVTVSS
VL: QTVVTQEPSLTVSPGGTVTLTCASSTGAVTSSYFPNWFQQKPGQAPRPLIYSTTIRHSWTPARFSGSLLGGKAALTLSGVQPEDEADYYCLLYSGGDPVAFGGGTKLTVL
B8: TCN-533 (5256_A17) (antibody, V domains shown)
VH: QVQLVQSGADVKKPGSSVTVSCKASGGSFSNYGINWVRQAPGQGLEWMGGIIPLINAPNYAPKFQGRVTITADMFSNIVSLQLTSLRTDDTAVYYCARRKMTTAIDYWGQGTLVTVSS
VL: QPVLSQPPSASASLGASVTLTCTLSSGFDNYQVAWYQQRPGKGPRFVMRVGNGGNVASKGDGIPDRFSVSGSGLNRYLTIKNIQEDDESDYYCGADHGSGNNFVSPYVFGGGTKLTVL

Molecular target: Hemagglutinin of influenza A/Japan/305/57 (H2N2), on inactivated whole virions (Influenza A virus A/Japan/305/1957 …, UniProt P03451 16-562)
Test: ELISA, B cell culture supernatant on inactivated whole virions

**Q.** Which OD450 does the source give for B1 here?
**A.** The OD450 was 3.62 OD450.

**Q.** B2 was tested. Which OD450 did it give?
**A.** Its OD450 is 0.08 OD450.

**Q.** Which OD450 does the source give for B3 here?
**A.** The OD450 was 2.56 OD450.

**Q.** With B4 as the binder, how does the OD450 read?
**A.** The OD450 was 1.46 OD450.

**Q.** For B5, which OD450 is on record?
**A.** Its OD450 is 0.07 OD450.

**Q.** With B6 as the binder, how does the OD450 read?
**A.** Its OD450 is 0.06 OD450.

**Q.** Which OD450 does the source give for B7 here?
**A.** The OD450 was 0.08 OD450.

**Q.** How did the OD450 turn out when B8 was run?
**A.** Its OD450 is 1.1 OD450.
